From the domain aggregation screens of Martell et al. (2025)

Test: soluble fraction after stress (log2 fold change); higher = more stays soluble; pooled small domains, quantitative proteomics
Details: stress: 75 degC
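Note: 20 min heating vs room temperature control held 20 min.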

| Sequence | soluble fraction (log2) |
| --- | --- |
| HMSETIVFGQQKAINTLSSEAGLSSAELNNYLKKRYQRPLFQLTVSEGADLIQGFQDGTLTKASITQYVSQ | -0.0878 |
| HMSETQDQTTIEIEDMITVGTLAERLSIPVSTLIGELMKNGVMATVNEKIDFDTAQIIVGELKLPIELSKK | 0.0487 |
| HMSEYEYALHEFGITKKQSQRIFDRLSIADLEERINAIQTTLKQRSDIDNPAAYAWTVLNAE | -0.0603 |
| HMSEYLDIHMAMEKLNRKEQLFVHLRFYEGLTQSEIAQRLFTSQVQISRLEKSVLEKMRQILSK | -2.2 |
| HMSEYTRGELVSSLEAGEVAAVSIRPNRETPTGEAQIVLSDGQHRVLYVTDVREIEELVSSYGLNPQVEK | 0.196 |
| HMSFDNIKVGYISETAGYVKGISLADANEYAKLNPDTEFIFIDGDEKVRFLTINEVNGLTPKNLLRSDP | 0.229 |
| HMSFGFFELKSSDTDKLFAYLNNNEHFGNIKEENGLVTAFLTSELDAQTLNKLLFDNGIIASHLVKRK | -0.928 |
| HMSFMPDPSIHDAITYTVRSGDYLGKISTTFGVKVSDLQKWNSIKSNIIYPGQKLTVWVSSNKRESLQ | -1.71 |
| HMSFPLKRGSKGNRVTQLQNALVKKFGASILPKYGVDGMFGKEVEAALVRAKLPTSINESTYNSFV | 0.125 |
| HMSFVAYEEEKAIGMVRLIGDGGMSFYIKDFAVLPGHQGKGVGQMLLMELQQYLLEHKPADWAVSLE | -0.359 |
| HMSGAKLLAPVTGTLLRYTVAEGTKVSEGQTVIMLESMKMELEINAHKAGVIHFTAAAGAQVAEGDSLAEI | -0.945 |
| HMSGDKKLQMNLILEFAQQNESFRTKDIEELLQIRSSRARKLISDLVTEGRLEALGENRNRRYQLI | -1.05 |
| HMSGDYRALYSSLPPERASSVVDALNVAGIPYRIQDSTGAIMVPAEQIYDARIRLAGQGLGK | 0.104 |
| HMSGEPKNERQIEVPDVTKKSIREANNILTSEGLRLRIEGTGLAVSQKPAAGTMVEPDTIITVTFQAP | 0.441 |
| HMSGHEVMVQRITAIIAELYQYGFVSRKKMMDEFNISERTLYRDLNRLGDRIVPDGDGIYRLAPAYA | -1.55 |
| HMSGHIPGIKIKGVIFFDKGSSSNHIIATTENNSNLKLRVGETVQGAVLKSIHPNHVIFFHHNQLIEVGIG | -4.39 |
| HMSGKGEFDQLLRSGEYVQAFQRANANGNVTLRRQQLLNLARHQAASGVGSGAIESLSTIQRI | 0.00597 |
| HMSGKMTVPNVVGKTETEAKSALSAKGFTNVRTETVDSTEAAGTVVKQSLDADSVQDPKTEIVLSVSNG | 0.946 |
| HMSGKWKIRILWYIAEYEVQRFGELRRRLGDITQSTLTEQLRELEQDGFVSRYVYQEVPSKVEYSLTE | 0.197 |
| HMSGKWSILILHALEQGPKRFNVLHRELSGITQATLTKQLRQLEEDGIILRKAYPQIPPKVEYQLTEIG | -1.82 |
| HMSGNPLDTYYSKWSAEIKKGSPNAVISKEGDKYYVSIPGENRMAIIYENPHLIRMVNATRNIHVE | -0.092 |
| HMSGPSDRDLFDEALALLSGSGREPDYHEARIRLGTLVEQFPESKWAEGAKALLSMLDRVSALQV | 0.247 |
| HMSGPVITEERNIANALISGLANMKETPTREQVERKAQQIAELFGYTGDLRNIITEAMISVDT | -0.0406 |
| HMSGRPPTYTAEERSAVIAAALSRPADLGLPFASWTLDRLVAYLGEKGIGMKRSRMSEVLLAEGLKW | -2.02 |
| HMSGSGYAYVDKYGYSHVVKDYDTAKNYASDGNVYNYSGSHKGGYAYDADNYRVPLDLPGSKPYG | 0.191 |
| HMSGSIIQQAENLERQFGDTREAILGTLSDPKMSEEILETLMERYNKQHGTNWDKNTWAEEWAKANK | 0.682 |

| Sequence | soluble fraction (log2) |
| --- | --- |
| HMSGSILVQVSATDLNIRKGPGTNYGTTGKYTGKGTFTIVETRSGQGSNAGWGKLKSGAGWISLDYAKR | -1.54 |
| HMSGTESMIEGRGEARTAIDGEGKVFFQGEYWTAQSDQFIPQGAKVRIKKVEGLNLIVEEIK | 0.065 |
| HMSGTYIVTVQANTLDIYKSMTSNDTIGKANKGDVFQILEDMGGGYAKVSYNDVEGYISIKDGDTSIDEM | -0.389 |
| HMSGVIVPDIYNKTLAEAVASLEGEGFSTEKKEGYSDTVPKGNVMSQKPEAGTSAERGSTVTITISQGPQ | 0.0579 |
| HMSGWIATGTATSTGNDVRVRSTPDATVNNNILLTLNKGNRFEIDGQTQNGFYHIKVNDTIGWISGLYVKE | -0.976 |
| HMSGYFSDKKLNELFEQYLIMREKKGKPVVGYQLKILIDRLNQVAANTKEKIEVVSNAIAGDWNTFYPIKR | -2.07 |
| HMSHDTLVYRLAQMLVKLNQGEKLDPQQLAEEFGVNLRTIQRDLNVRFAYLQLEKTDGRYHLDPTFL | -1.46 |
| HMSHLTKKQEEVLLFIRDYYEEEGRSPSYSDIQHHFGLKSKSSVQDYIGYLKKAGFLQKSVGSRAIELV | -2.52 |
| HMSHQIIIVAVELDPSTERIVYYLSKNGISINVLFFKVFQHGDEQFLSRVWLIDPSETQTNAALA | -0.726 |
| HMSIESMVGRFGVVTKDVVANEMAGKVKVGREEFRATADIAVSSGTKVKVTHAEGITLTVVPE | 0.611 |
| HMSIGKEATPDDIVPNIRVYHATFGYGNVIKTDGVSHDKKAVVNFDSVGEKTLLLKFAKLILPY | -0.557 |
| HMSIGLEGFVGKLGISTSDLRPSGWGEFDAKKLFVVTEGEFVDRKEKIEILSVDGNRILVRKIS | -1.56 |
| HMSILPGVYRHYKGNHYQVFYLAKHSETLEDMVVYQALYGERGIWVRPASMWNETVDDQGKQVKRFTYI | -3.58 |
| HMSILYNAVKGTLVSSGALTADSWYKISSFGTASALPALKVGSIFKTPEGAGDAITLASGDSVYPLTLT | -1.28 |
| HMSINQTIEGKKQGYWIIYGNMRNLQEYLSNEVIEEGQFKNSRKEGVWRKYFPGGQMKSEITYINGRP | -0.266 |
| HMSINTIIAKNLNRLRNERNLSLGQLAELSGVSKVMLSQIEKGDSNPTVNTIWKIASGLNVPYTAILDQP | -0.798 |
| HMSIPVLKDGTYESWGNEKVYKVGDRVMVGSNGYVAKWWNQDETPEKAIINPNDSPWRPMTESEIMEVLK | -0.128 |
| HMSISEADAKKIALEKVPGATDSNLRIKTDYDDGIMKYEVKIVYNEMKYEFDIDAATGTILEWESESVY | -1.37 |
| HMSISSSEAARSAVASSGGTVLGVSKASHGGYKAWAVRIQRADGSVVTGYVDRASGTVYDWVVNQAA | -0.663 |
| HMSKEDDSLVVTFRRMLLEEVDLHELSRIDANQRRARLERVIAHLVSREGVILSASERNQLVRRVVDEAV | -2 |
| HMSKEEAIQAMKEGKKVTHRFFSSDEWMTIENGFLLLEDGVRISLEDFFNFRSDSLWDNGYELYNPH | -0.628 |
| HMSKFSDTLVYLRKRAGFSQQELADKMEVSRSLVGMYESGQRMPSYEMLEALADIFNVNIDFLTGH | -1.28 |
| HMSKIRSEINKFSSDADKPILEWLFERYHWASQWRFVARFSEQRYGVLSYEINRVWEPTIEGRALYDQL | -2.27 |
| HMSKKMLASIFDTISGIGKKRLKKIWDNYTSLNELKDDSLENIYAKTQIPINLITKIKEKLE | -0.913 |
| HMSKKMTNEEILNFLKKVLIKHGKISGFIIDEDDNGPSSSVVASRFGGLLNAYKLINYTPER | -0.906 |
| HMSKMTLGENLRLLRREKGLSQEQVAQTLFVARQTISKWENGQAEPGVESLKALAKLYGVSLDRLVGA | -1.01 |

| Sequence | soluble fraction (log2) |
| --- | --- |
| HMSKPLEVFKLTSEPFGFSFNTALGRSYTVEATGDLGVWKAVELFQGSGGEIRFTAKPTSSGGAQFFRVFV | 0.0649 |
| HMSKPVYILINKPKGFLASSTDKKVKKSVNDLINISNLNKIYPFDNMGRTSSGLLLLSNDLYFKKHFKDKI | 0.451 |
| HMSKQKRIKYFLSILNIKSIKQFRKKDLDYFYQKRFIEIQKSSKDKKLVSNQLIELNAAKEYLDEIDFEN | -3.78 |
| HMSKQQVRSILDDIPNIGETRRKALMRQFQSLEKIREASVGQLREVDGMNEKAAQSVYQFFHK | -0.0426 |
| HMSKQVDVVIYILENTKAADNTYIGTYRKTADGAGVSLDTATKVMRKLQENNFIKKVQNGVYQISPLIMM | -1.42 |
| HMSKRDDLLDQASEWLAKLDRDLTVVEERELKAWLGESAAHRETFIQMAKLWDKMESLSRLTDL | -0.898 |
| HMSKSVEQRRQQIVAWVKEHGQSQVEDLAVRFATSEVTIRKDLAALSQQGLLIRQFGGAVPVPA | -0.982 |
| HMSKTQYTFKEVGSQFQLFAPSTKHTIMISADHPKYGWLTNQDQGRVINVYDTGKMTSSQDYYGLYKEVT | 0.587 |
| HMSKTQYTFREVGSQFELHAPSTNHKIMVDANHPKYGWLSSQEAGRVINVYESGKMTSSQDYYGLYKQS | -0.092 |
| HMSLANTSVKEMLNDLVKNEEPSKPLSDEALVKIFKEKGVKIARRTVAKYRAELNILPSHLRRT | -1.56 |
| HMSLAVFLQGLLEEKQLKKADVIRRTGMEPTYGYHIFDGHKKHPARSKVLLLALAMGLTVKEAQHLLYYAG | -0.423 |
| HMSLDAAAVASKLIKRLSKSPGRRFALDDLAVDVGLPHEQGRPLVRSALELLVRTQQAVEGPPNVFRLFF | -2.51 |
| HMSLEDMILSLSSRIRRGESLHFRELLVAIETKSGMVTIFMAVLELLKQQVMEMRYEDDDIIFT | -1.04 |
| HMSLEEIPLEERLGPGGLDPVAVYDSLPREMRDAFDSGSVSALREFVNALPAEDAARHMKAMVDSGLWVPT | 0.148 |
| HMSLETRRYQLPRTDAQTASGLLRSLSGLPGVREVNLSGEGVAYLKVDSKGFDEQNVIKLLAGE | 0.47 |
| HMSLHSITIPQEFIGAVIGPGGKVIQEIQKQTGTTITITEKDNKGYVDIFGEDKGALDSALARIKEIVAIP | 0.289 |
| HMSLIDYLNELMNEKNITVAQVAKNSGIGEYVYKIFNGERNAKRDTLVAISFGMHLNFEETQLLLRIA | -1.19 |
| HMSLPALALRQADSLAFKQVIYHDRVVPFNTLARDFVLKLTGKPSYGGMTPEQVVGGWLLRPEVWQNEPM | 0.192 |
| HMSLPAYIKISEVIARRINAGQILAGDRLPNERTMAVEFGVAVGTLRKALYHLQVRGLVTRKHGSGNYINK | -0.221 |
| HMSLPKIVVPTDVTVSQLAKYLEVDAISIIKQLFGMGVVASLNQRLEDEIIQLIGNEFGKEIIFSE | 0.162 |
| HMSLPQSKDAVITILRTLPQLDTRAPEVYKLLGPHALDIILEDPEQVAKKINHVGVATAKLWQQALLGFK | -0.751 |
| HMSLQDYYQVLGVFYNAGDKEIKRRWKELINQYHPDLAQAKGASPEEIENYTLKMAEINNAYEQIMKSRKA | -0.396 |
| HMSLSASELDQLRMMTKVSHMYHTRGMVQIDIARSLGLSQARVSRLLSAAEDANIVRTVVVA | -0.392 |
| HMSLTAQVFTDRGKVLLSENKFTEAIDQFTKALAMDKVYIEALNRRIEAYQHLGLTELAAKDEALLGTL | -1.16 |
| HMSLTPSQDANRSAILDAARDLFARYGFKKTTMEDIAMALRKGKSSLYYYFKNKEDIFQAVIDS | -1.25 |
